In publication PMC5233953:

Experiments:
[1] = target: FrpD_(43-271) protein (Neisseria meningitidis); assay: SAXS; beamline X33 EMBL, room temperature; FrpD 1–9 mg/ml, FrpD-FrpC_(1-414) complex 1–5 mg/ml; molecular mass from the Porod volume
[2] = target: FrpD_(43-271) protein (Neisseria meningitidis); assay: cross-linking; FrpD-FrpC_(1-414) complex (1 mg/ml, 14 μM) with a 1:1 mixture of d0/d4 BS2G, 30 min; 70-kDa band digested with trypsin, nano-ESI-FTICR mass spectrometry
[3] = target: FrpD_(43-271) protein (Neisseria meningitidis); assay: SEC; Superdex 200 HR column; free proteins and an equimolar mixture of purified FrpD and FrpC_(1-414)

Measured: stoichiometry N

B1: FrpC_(1-414), the N-terminal domain of FrpC (domain or fragment)
chain: MNEGEVVLTPEQIQTLRGYASRGDTYGGWRYLANLGDRYADNAAAIVGKDTNLNGLNLWMKKGVENLWDDTVGKKTRLEKFDRVALQHFSQYVDLINKNNGRLPNTSEIERSYYKAVTYHGVSSSAAIDLVINRSLPDMADGYWALGLGIEAERIHNEQAVNNPNGSERDNRKQLISALDKGFDGSFKEKHFTFLQSVMMDLTKLGVEYTIDGWQKIGGWGNGIINDLYKSVVKREWTGIFEIVNNNIKQGNEAFKNEINSLVHDMKAAGKEFGDDLNTQWNNLTQAAEIIYNDIVDNTSQGIEKGVKAIKELSEKMKNAASDLADGSAEKAKQVVEDLAQAAKEAYENAKSTAEKAAQAAREFFKGLPSFKDLAEKFRDLFPNPEGWIDDGHQCFAPWVKETKKRNGKYHVYD
1: [1] | [2] | [3]
